# Experiments:
# [1] = target: FlhF-His6 (Vibrio alginolyticus FlhF with a C-terminal His6 tag) (V. alginolyticus); assay: SEC; purified FlhF kept on ice 10 min with 1 mM GTP; SuperDex 75 Increase in 20 mM Tris-HCl pH 8.0, 300 mM NaCl, 10 mM MgCl2, 1 mM GTP; fractions blotted with anti-FlhF antibody
# [2] = target: FlhF-His6 (Vibrio alginolyticus FlhF with a C-terminal His6 tag) (V. alginolyticus)
Substance,stoichiometry N [1],GTPase activity of FlhF: inorganic phosphate released in 30 min by 1 μM FlhF mixed with 1 μM FlhG (FlhF alone 5.3 μM; background sample 4.3 μM) [2]
FlhF-His6 (Vibrio alginolyticus FlhF with a C-terminal His6 tag) (enzyme),2,
His-tagged FlhG (his6-tev-flhG in pTrcHisB) (enzyme),,8.5 µM

# Source: paper PMC6092412
